# The DeepSol protein solubility set
# Assay: soluble on expression in E. coli; label from the status in PepcDB or PDB records
row,Sequence,soluble on expression in E. coli
1,MRGPVKIVATVGPSSSSASILAQMLSLGVDVARINASHGGVEQWNSMLESLRRAEEAVGKRVGVAVDLEGPRVRTGNSEPVKLEKGDLVTLGFMEGDVPVDARQFFETIDEGDIVLLDDGKIILQVESVEGFRVKARVLEGGVLGPRKGVVVRGKEPDLPPLSAKDRRALEFFADKGVSHVYVSFARSAEHVEKVRTVVRRLGLRQARIFAKIEGPSGVSRIGEIAEASDGVIIARGDLGMHYSLEELPEIQELIVWEARKRYKTVVLATEFLSSMIEKPVPTRSEVVDIYQAVLQTADALMLTGETAIGKYPVKSVQWMAKISSRAYKKLATSPPERPRPTSTPYKLALGLVELAESLDSPLVVYSKTGRFAERLASFKPLKTFYVGVPSREVERVVRHLWGAEPIVVGDYPYEAGLAKTYEKLRRENIIHGDETVVEAAWSSERGIYIIRVRNLEF,soluble
2,MRGQNRRGYRNIEGRLSLSSHSSHSSPRQTHVTNLRPAEIKVVQDVVDGCYVATDDVLNLSNFSKNTEFVERDMLMCLTKTRVMSVVLQHIGYKYPRISGISFSNNRLCHLDHLSSLSSISKFLKFLDLSHNQISSGEELKKLGTIPVETVFFEGNPVCEKFVQCAEYANFIQKTFPKCSNLDGMEVEPKPDHNRIEQIIPFRNGYYGSDEVRTLVEEFIITYYKIYDGADGQQTRKQLLDAYDTNNSTFTHTVVCLWDPIKFVMYPDSESYRMYLRTSHNVLNQEYFAANRASRISHGAMDIVVALSRLPATIHLMDTFVVDVFLVSATLLGFTLHGTFRDGPSAIKPENTEEHDNYFTRTFMVAPRGEGKVAIVSDQLFISSMSKRRGDQYRMLVETATDIDQ,not soluble
3,MRGSHHHHHHGMASMAVSESQLKKMVSKYKYRDLTVRETVNVITLYKDLKPVLDSYVFNDGSSRELMNLTGTIPVPYRGNTYNIPICLWLLDTYPYNPPICFVKPTSSMTIKTGKHVDANGKIYLPYLHEWKHPQSDLLGLIQVMIVVFGDEPPVFSRP,soluble
4,MRGSHHHHHHGMASMTGGQQMGRDLYDDDDKDHPFMAQRTEESKGKLSFATQGGQGEGSYSKSNSAASKTLSACIVPSLEEFLLHHFSPPQGAGPIYYADFGCAVGANTIGLAKFVTETLKSRPEISERDFLCYFADLPTNDFNTLFNQFPPLASRDGGNGNVEERTWFAAGVPGNQFNRMFPRSSLHVAITTLTLHYLPEIPKSITDESSPTFNRGCISSHGASPAVAEVFADTSREGLRKFFQCRAEELASGGVLAFYFPSRPDRAHPERQMSEDSMQLALWKVETAWRELVAEGVMPEELLDTFNVPNCHPSKEEVEEVVDHETSCFHIQKLEYIHKHPFSPPNPELILKDAQSYAKWWTGILRGGLGGMLSAHMAPELTEALMERFSKHIEKDYLEKKPQFPMIMNICMGILIRK,soluble
5,MRGSHHHHHHGMASMTGGQQMGRDLYDDDDKDHPFTMFYEKIQTPAYILEEDKLRKNCELLASVGEKSGAKVLLALKGFAFSGAMKIVGEYLKGCTCSGLWEAKFAKEYMDKEIHTYSPAFKEDEIGEIASLSHHIVFNSLAQFHKFQSKTQKNSLGLRCNVEFSLAPKELYNPCGRYSRLGIRAKDFENVDLNAIEGLHFHALCEESADALEAVLKVFEEKFGKWIGQMKWVNFGGGHHITKKGYDVEKLIALCKNFSDKYGVQVYLEPGEAVGWQTGNLVASVVDIIENEKQIAILDTSSEAHMPDTIIMPYTSEVLNARILATRENEKISDLKENEFAYLLTGNTCLAGDVMGEYAFDKKLKIGDKIVFLDQIHYTIVKNTTFNGIRLPNLMLLDHKNELQMIREFSYKDYSLRN,soluble
6,MRGSHHHHHHGMASMVNTKPEKTEEDSEEVREQKHKTFVEKYEKQIKHFGMLRRWDDSQKYLSDNVHLVCEETANYLVIWCIDLEVEEKCALMEQVAHQTIVMQFILELAKSLKVDPRACFRQFFTKIKTADRQYMEGFNDELEAFKERVRGRAKLRIEKAMKEYEEEERKKRLGPGGLDPVEVYESLPEELQKCFDVKDVQMLQDAISKMDPTDAKYHMQRCIDSGLWVPNSKASEAKEGEEAGPGDPLLEAVPKTGDEKDVSV,soluble
7,MRGSHHHHHHGSAHGLTDDMTMHFRMEGCVDGHKFVIEGNGNGNPFKGKQFINLCVIEGGPLPFSEDILSAAFDYGNRLFTEYPEGIVDYFKNSCPAGYTWHRSFRFEDGAVCICSADITVNVRENCIYHESTFYGVNFPADGPVMKKMTTNWEPSCEKIIPINSQKILKGDVSMYLLLKDGGRYRCQFDTIYKAKTEPKEMPDWHFIQHKLNREDRSDAKNQKWQLIEHAIASRSALP,soluble
8,MRGSHHHHHHGSGKSYPTVSADYQKAVEKAKKKLRGFIAEKRCAPLMLRLAWHSAGTFDKGTKTGGPFGTIKHPAELAHSANNGLDIAVRLLEPLKAEFPILSYADFYQLAGVVAVEVTGGPEVPFHPGREDKPEPPPEGRLPDATKGSDHLRDVFGKAMGLTDQDIVALSGGHTIGAAHKERSGFEGPWTSNPLIFDNSYFTELLSGEKEGLLQLPSDKALLSDPVFRPLVDKYAADEDAFFADYAEAHQKLSELGFADAHEM,soluble
9,MRGSHHHHHHGSMAVPPTYADLGKSARDVFTKGYGFGLIKLDLKTKSENGLEFTSSGSANTETTKVNGSLETKYRWTEYGLTFTEKWNTDNTLGTEITVEDQLARGLKLTFDSSFSPNTGKKNAKIKTGYKREHINLGCDVDFDIAGPSIRGALVLGYEGWLAGYQMNFETSKSRVTQSNFAVGYKTDEFQLHTNVNDGTEFGGSIYQKVNKKLETAVNLAWTAGNSNTRFGIAAKYQVDPDACFSAKVNNSSLIGLGYTQTLKPGIKLTLSALLDGKNVNAGGHKLGLGLEFQA,soluble
10,MRGSHHHHHHTDPALRANEFSILCRVLGSLYYRQPQDPLLVPLFTLIREGKLAANWPLEQDELLTRLQKSCDMTQVSADYNALFIGDECAVPPYRSAWVEGATEAEVRAFLSERGMPLADTPADHIGTLLLAASWLEDQSTEDESEALETLFSEYLLPWCGAFLGKVEAHATTPFWRTMAPLTRDAISAMWDELEEDSEEGLCGR,soluble
11,MRHAVHQELIDTNPAANLGGVTTPPVRRHYPALPLERLPELLERIGAYHQGRELTRHAVLLMLHVFIRSSELRFARWSEIDFTNRVWTIPATREPIIGVRYSGRGAKMRMPHIVPLSEQSIAILKQIKDITGNNELIFPGDHNPYKPMCENTVNKALRVMGYDTKKDICGHGFRAMACSALMESGLWAKDAVERQMSHQERNTVRMAYIHKAEHLEARKAMMQWWSDYLEACRESYAPPYTIGKNKFIP,not soluble
12,MRHILSVLIENESGAMSRVVGLFSARDYNIDSLAVAPTEDKTLSRMTIVTHGDEQVIEQITKQLNKLIEVIKVVDLNESRFVERELMLVKVRAAGKDRDEFLRLTEIYRGSIIDVTDRSYTIEITGSTDKLDSFLETVGRAQILETVRTGAAGIGRGERILKI,not soluble
13,MRIALFTDTYIPQVNGVARTMKRLVDHLEKRQVEYALYMPETIEKLDRFESNIHTFASLPFFLYPECRIALPNVFKLRQQLTSFQPDLLHIATPFNVGLSGLQHGKKYGIPMVGSYHTHFDHYLHYYKLQFMSAWLWKYVKWFHQPFERTFVPSVETMRHLQKHGFQRLALWTRGVDCERFHPKQRHRSYAINLLPKDKAVLLYVGRLAPEKDLATLVAIMSLLPRELNEKIQWMIVGDGPSLPEMKKQCPSNVTFTGYLKGEELAAAYASADLFVFPSATETFGNVVLEAFASGTPAIVADRGGVTEIVEHGKSGMICKAGDAHTFIQAIEHLLMNRSKRAEMGYEARQYALTQSWERIFDDLLEQYEQVIFHHKKRHLALEHHHHHH,not soluble
14,MRIALIFLVLLVSFASSCKNFDKYMNMFCRYGLEQSPCTVEDYSTYKSACCAMKNNCSYKEFPKDDVCCFTVECLKRCFPEKLLKNDKVY,not soluble
15,MRIEKVDTFPLFHKLSSPYGDANGLKSYRTSYLIRITTASGLTGWGECADWLPALDAGFKKRIIPYLIGKEASNRTELITVIKKWHQRAASAVSMALTDITAKKAGLSVCELWGGKLREQIPVYASFQSYSDRPDWSRHSLRLIEKAVRAGFKAVKLKAGGKMFSEDLAHIQAFQEMTGQSTGLILDANQSYDQAAARKWETWFSGWQNVLWFEEPMPFDDLAEYRMLRSALSVPVAGGENVKGAKPFLPIFLENAVDIAQPDVMHCEGTDEFQTVLKLARHFGKRVSPHSYDGGLSRIYAAFGQACLPHWTKMDGEDIEPLEWDAMENPFAQIVPVSIKDGCIQVPDKIEIDTELVEAYVWDGSSYI,soluble
16,MRIELSIKADDSLVSFSHQHLLVGTLQKWLGENDMHGKSISYSFSRLNGGKLVSELNSILFADWANMFVSAHDPELIRRMLAGIRQDPEMFKSLCVREVTVIEDPDMTDREIFFPASPILLKRWREDNGFDHIVYTDEAANALLTENLRKKLQAVGIDDPTATASFVPDQGKAKVMLIDYRGVKNKASWCPIRIIGNAETKLFAWNAGIGNSTGIGFGAIK,not soluble
17,MRIFLDANVIADWILLKNKNQDASDPLLTERYRHMAESFKLVEEILKLKEKVSGTSQMAIAEVFGVIYDDAINMKLFREAVPASSWYWFSIRERKALSEDSQQLFLMEPHTSPQGI,not soluble
18,MRIFSRLFKARDKPKNSLFGNAYSFFFGGTSSGKAVNERTAMQTTAVYACVRILAEAIAGLPLHVYRYKEDGGKEKALTHPLYYLLHDEPNPEMTSFVFRETLMSHLLLWGNAYAQIVRDGSGRVLALYPLLPNKMTVDRAPNGELYYTYRRDSDESRVNPKAGLIYLRSDEVLHIPGLGFDGLIGYSPIAMAKNAIGMAIACEEYGASFFANGANPGGVLEHPGVLKDPAKVRESWNAVYQGSANAHRIAVLEEGMKFQPIGIPPEQAQFLETRKFQINEIARIFRVPPHMVGDLEKSSFSNIEQQSLEFVKYTLDPWVVRWEQALQKALLLPSEKRAYFVKFNVDGLLRGDYASRMNGYAVARQNGWMSANDIRELEDMNRIPAELGGDLYLVNGNMTRLADAGTFAGKNNAETEGSKVEQITKTKTGSPLLELDTKR,not soluble
19,MRIGINVGSTQVDAVILSKHGKVVAASETVIQDDETVLAIKEALVSLIRYLRDTDEVRGVFIGATSECQEVKLGKGLAKTGLIRLNRYQSQIQPLMKWPKALSDHVVYTQSVEIGEELDWFNYFQESLARLKEAEVEAIAVVGAFSPMDNCSEQLVKESLNYHLPSIPVTMSHTIGSIGFLERENAAVLNAVLSKKMKNTLKGVKDFLSSLGFHCPLWVTRNDGCLMTIEEAIEFPVLTLGSGSANSFRGGAFLAEERSCIVVHVSEGITKIGTMIQERFEESHSQTYVFGIPTNLRMPHSIVLPLGEEKQGALGHDIRHGNPSEKTKREEVLISERKGISLAERHAGSSASNLEDQQEMWSTLKQSGLDREAMTQYAERVNDSIEELQIYDQELPIVVVGSGAPCMMQRLQSQTREVVAPFGYQRCHAVGACLGMVSAEVDQVYHLKDQTKAEVIEEAKEKAIKEAERKGAFPDTISIEQVEEYPFDYLQGEVIRIRVKAVGQVKDSLEHHHHHH,not soluble
20,MRIGVIMGGVSSEKQVSIMTGNEMIANLDKNKYEIVPITLNEKMDLIEKAKDIDFALLALHGKYGEDGTVQGTLESLGIPYSGSNMLSSGICMDKNISKKILRYEGIETPDWIELTKMEDLNFDELDKLGFPLVVKPNSGGSSVGVKIVYDKDELISMLETVFEWDSEVVIEKYIKGEEITCSIFDGKQLPIISIRHAAEFFDYNAKYDDASTIEEVIELPAELKERVNKASLACYKALKCSVYARVDMMVKDGIPYVMEVNTLPGMTQASLLPKSADAAGIHYSKLLDMIIETSLRVRKEEGF,not soluble
21,MRIIETIEEMKKFSEEMREKKKTIGFVPTMGYLHEGHLSLVRRARAENDVVVVSIFVNPTQFGPNEDYERYPRDFERDRKLLEKENVDCIFHPSVEEMYPPDFSTYVEETKLSKHLCGRSRPGHFRGVCTVVTKLFNIVKPHRAYFGQKDAQQFRVLRRMVRDLNMDVEMIECPIVREPDGLAMSSRNVYLSPEERQQALSLYQSLKIAENLYLNGERDAEKIKEEMIKHLSRFDKVKIDYVEIVDEETLEPVEKIDRKVIVAVAAWVGNARLIDNTILG,soluble
